Source: the Human Domainome abundance scans (Beltran et al. 2025)
± gives the uncertainty stated by the source.

B1: POU domain, class 3, transcription factor 4, residues 280 to 335; numbered along this chain, P49335 (parent)
chain: KKRTSIEVSVKGVLETHFLKCPKPAAQEISSLADSLQLEKEVVRVWFCNRRQKEKR

Variants of: B1
Test: abundance fitness (aPCA) (normalised: wild type 0, dead -1); higher = more abundant; growth selection in yeast, the domain comes from the species named
Conditions: Homo sapiens

Row | Variant | abundance fitness
1 | KKRTSIEVSVKGVLETHFLKCPKPAAQEISSLADSLQLEMEVVRVWFCNRRQKEKR [K40M] | -0.269 ± 0.15
2 | KKRTSIEVSVKGVLETHFLKCPKPAAQEISSLADSLQLEEEVVRVWFCNRRQKEKR [K40E] | 0.192 ± 0.23
3 | KKRTSIEVSVKGVLETHFLKCPKPAAQEISSLADSLQLEYEVVRVWFCNRRQKEKR [K40Y] | 0.009 ± 0.2
4 | KKRTSIEVSVKGVLETHFLKCPKPAAQEISSLADSLQLEQEVVRVWFCNRRQKEKR [K40Q] | -0.063 ± 0.19
5 | KKRTSIEVSVKGVLETHFLKCPKPAAQEISSLADSLQLENEVVRVWFCNRRQKEKR [K40N] | -0.248 ± 0.28
6 | KKRTSIEVSVKGVLETHFLKCPKPAAQEISSLADSLQLELEVVRVWFCNRRQKEKR [K40L] | -0.418 ± 0.14
7 | KKRTSIEVSVKGVLETHFLKCPKPAAQEISSLADSLQLEIEVVRVWFCNRRQKEKR [K40I] | -0.638 ± 0.27
8 | KKRTSIEVSVKGVLETHFLKCPKPAAQEISSLADSLQLESEVVRVWFCNRRQKEKR [K40S] | -0.188 ± 0.14
9 | KKRTSIEVSVKGVLETHFLKCPKPAAQEISSLADSLQLEGEVVRVWFCNRRQKEKR [K40G] | -0.441 ± 0.16
10 | KKRTSIEVSVKGVLETHFLKCPKPAAQEISSLADSLQLEFEVVRVWFCNRRQKEKR [K40F] | 0.195 ± 0.17
11 | KKRTSIEVSVKGVLETHFLKCPKPAAQEISSLADSLQLEPEVVRVWFCNRRQKEKR [K40P] | 0.348 ± 0.18
12 | KKRTSIEVSVKGVLETHFLKCPKPAAQEISSLADSLQLETEVVRVWFCNRRQKEKR [K40T] | 0.181 ± 0.16
13 | KKRTSIEVSVKGVLETHFLKCPKPAAQEISSLADSLQLEHEVVRVWFCNRRQKEKR [K40H] | 0.099 ± 0.22
14 | KKRTSIEVSVKGVLETHFLKCPKPAAQEISSLADSLQLEDEVVRVWFCNRRQKEKR [K40D] | -0.287 ± 0.27
15 | KKRTSIEVSVKGVLETHFLKCPKPAAQEISSLADSLQLEVEVVRVWFCNRRQKEKR [K40V] | 0.097 ± 0.14
16 | KKRTSIEVSVKGVLETHFLKCPKPAAQEISSLADSLQLEWEVVRVWFCNRRQKEKR [K40W] | -0.539 ± 0.18
17 | KKRTSIEVSVKGVLETHFLKCPKPAAQEISSLADSLQLEREVVRVWFCNRRQKEKR [K40R] | -0.071 ± 0.14
18 | KKRTSIEVSVKGVLETHFLKCPKPAAQEISSLADSLQLEKEEVRVWFCNRRQKEKR [V42E] | 0.185 ± 0.2
19 | KKRTSIEVSVKGVLETHFLKCPKPAAQEISSLADSLQLEKENVRVWFCNRRQKEKR [V42N] | -0.799 ± 0.41
20 | KKRTSIEVSVKGVLETHFLKCPKPAAQEISSLADSLQLEKEPVRVWFCNRRQKEKR [V42P] | -0.874 ± 0.28
21 | KKRTSIEVSVKGVLETHFLKCPKPAAQEISSLADSLQLEKEIVRVWFCNRRQKEKR [V42I] | -0.49 ± 0.32
22 | KKRTSIEVSVKGVLETHFLKCPKPAAQEISSLADSLQLEKERVRVWFCNRRQKEKR [V42R] | -0.689 ± 0.14
23 | KKRTSIEVSVKGVLETHFLKCPKPAAQEISSLADSLQLEKEFVRVWFCNRRQKEKR [V42F] | -0.318 ± 0.26
24 | KKRTSIEVSVKGVLETHFLKCPKPAAQEISSLADSLQLEKEWVRVWFCNRRQKEKR [V42W] | -0.291 ± 0.15

Row | Variant | abundance fitness
25 | KKRTSIEVSVKGVLETHFLKCPKPAAQEISSLADSLQLEKELVRVWFCNRRQKEKR [V42L] | -0.122 ± 0.13
26 | KKRTSIEVSVKGVLETHFLKCPKPAAQEISSLADSLQLEKEMVRVWFCNRRQKEKR [V42M] | -0.401 ± 0.2
27 | KKRTSIEVSVKGVLETHFLKCPKPAAQEISSLADSLQLEKEQVRVWFCNRRQKEKR [V42Q] | -0.254 ± 0.24
28 | KKRTSIEVSVKGVLETHFLKCPKPAAQEISSLADSLQLEKEYVRVWFCNRRQKEKR [V42Y] | -0.396 ± 0.43
29 | KKRTSIEVSVKGVLETHFLKCPKPAAQEISSLADSLQLEKEAVRVWFCNRRQKEKR [V42A] | -0.552 ± 0.22
30 | KKRTSIEVSVKGVLETHFLKCPKPAAQEISSLADSLQLEKEGVRVWFCNRRQKEKR [V42G] | -0.648 ± 0.17
31 | KKRTSIEVSVKGVLETHFLKCPKPAAQEISSLADSLQLEKESVRVWFCNRRQKEKR [V42S] | -0.431 ± 0.17
32 | KKRTSIEVSVKGVLETHFLKCPKPAAQEISSLADSLQLEKEKVRVWFCNRRQKEKR [V42K] | -0.596 ± 0.35
33 | KKRTSIEVSVKGVLETHFLKCPKPAAQEISSLADSLQLEKEDVRVWFCNRRQKEKR [V42D] | 0.216 ± 0.41
34 | KKRTSIEVSVKGVLETHFLKCPKPAAQEISSLADSLQLEKETVRVWFCNRRQKEKR [V42T] | 0.207 ± 0.18
35 | KKRTSIEVSVKGVLETHFLKCPKPAAQEISSLADSLQLEKEVKRVWFCNRRQKEKR [V43K] | -1.01 ± 0.36
36 | KKRTSIEVSVKGVLETHFLKCPKPAAQEISSLADSLQLEKEVLRVWFCNRRQKEKR [V43L] | -0.437 ± 0.15
37 | KKRTSIEVSVKGVLETHFLKCPKPAAQEISSLADSLQLEKEVWRVWFCNRRQKEKR [V43W] | -1.19 ± 0.38
38 | KKRTSIEVSVKGVLETHFLKCPKPAAQEISSLADSLQLEKEVARVWFCNRRQKEKR [V43A] | -0.692 ± 0.19
39 | KKRTSIEVSVKGVLETHFLKCPKPAAQEISSLADSLQLEKEVMRVWFCNRRQKEKR [V43M] | -1.22 ± 0.47
40 | KKRTSIEVSVKGVLETHFLKCPKPAAQEISSLADSLQLEKEVGRVWFCNRRQKEKR [V43G] | -0.687 ± 0.17
41 | KKRTSIEVSVKGVLETHFLKCPKPAAQEISSLADSLQLEKEVPRVWFCNRRQKEKR [V43P] | -0.774 ± 0.23
42 | KKRTSIEVSVKGVLETHFLKCPKPAAQEISSLADSLQLEKEVIRVWFCNRRQKEKR [V43I] | -0.543 ± 0.2
43 | KKRTSIEVSVKGVLETHFLKCPKPAAQEISSLADSLQLEKEVRRVWFCNRRQKEKR [V43R] | -0.738 ± 0.15
44 | KKRTSIEVSVKGVLETHFLKCPKPAAQEISSLADSLQLEKEVTRVWFCNRRQKEKR [V43T] | -0.975 ± 0.2
45 | KKRTSIEVSVKGVLETHFLKCPKPAAQEISSLADSLQLEKEVFRVWFCNRRQKEKR [V43F] | -0.567 ± 0.28
46 | KKRTSIEVSVKGVLETHFLKCPKPAAQEISSLADSLQLEKEVERVWFCNRRQKEKR [V43E] | -0.815 ± 0.33
47 | KKRTSIEVSVKGVLETHFLKCPKPAAQEISSLADSLQLEKEVSRVWFCNRRQKEKR [V43S] | -0.852 ± 0.17
